Measurements reported in patent CN112239498A.

Legend:
[1] = target: 1bE2C (Hepatitis C virus, subtype 1b); experiment: ELISA, coated 1bE2C, anti-human IgG-HRP detection
[2] = target: 1aE2C、1bE2C、2aE2C、3aE2C、4aE2C、5aE2C、6aE2C; experiment: ELISA, coated E2C of seven subtypes

B1: 抗体HNC-5 (antibody, V domains shown)
VH: QVQLVQSGAEVKKPGSSVKVSCKVSGVTFKGYAISWVRQAPGQGLEWMGSVIPIFGAANYAQQFQGRVTITADESTSTAYMELRSLKFDDTAVYYCGRGDQLLWGITAFHYWGQGTLVTVSS
VL: EIVLTQSPGTLPLSPGEGATLSCRASHIVTSNNLAWYQQKPGQAPRLLIYGASNRATGIPDRFSGSGSGTDFTLTISRLEPEDFAMYYCQQYGSSPGTFGQGTKLEIK
EC50 [1]: 0.016 µg/mL
EC50 [2]: 0.00216 to 0.0226 µg/mL
